Laboratory results: patent US20100048412A1

Target: R19-Ava-…-NH2 (2)
Test: cell-based or functional assay

suppression of peptide digestion by 420 nM PSA after addition of the protease inhibitor mix (AEBSF, Aprotinin, Elastatinal, GGACK): > 90%
Substance: prostate-specific antigen (PSA), proteolytically active (from UniProt P07288 25-261) (enzyme)
